In the oligonucleotide strings, read from the 5' end, every base follows the letter of its sugar. An asterisk marks phosphorothioate; unmarked linkages are phosphodiester. Other units and linkages are bracketed, terminal groups are in braces. A string of capitals states the bases alone. m = 2'-O-methyl; r = 2'-OH (RNA)
B1: GA242: PCSK9 gRNA; protospacer TCACCGCTGCCGGCAACTTC (SEQ ID NO: 235) (nucleic acid)
guide: UCACCGCUGCCGGCAACUUCGUUUUAGAGCUAGAAAUAGCAAGUUAAAAUAAGGCUAGUCCGUUAUCAACUUGAAAAAGUGGCACCGAGUCGGUGCUUUU
modifications: sugars from the 5' end m3 r94 m3, linkages s3 o93 s3 (s phosphorothioate, o phosphodiester), T or U not given here
B2: GA399 (nucleic acid)
guide: mU*mC*mA*rGrCrUrCrCrArGrGrCrGrGrUrCrCrUrGrGmGrUrUrUrUrArGmAmGmCmUmAmGmAmAmAmUmAmGmCmAmArGrUrUmArAmArAmUrAmAmGmGmCmUmArGmUrCmCrGrUrUmAmUmCrArAmCmUmUmGmAmAmAmAmAmGmUmGmGmCmAmCmCmGmAmGmUmCmGmGmUmGmCmU*mU*mU*mUmUmUmU
B3: GA396 (nucleic acid)
guide: mU*mC*mA*rGrCrUrCrCrArGrGrCrGrGrUrCrCrUrGrGmGrUrUrUrUrArGmAmGmCmUmArGmAmAmAmUmAmGmCmAmArGrUrU*mArAmArAmUrAmAmGmGmCmUmArGrUmCmCrGrUrUrAmUmCrArAmCmUmUrGmAmAmAmAmAmGmUmGrGmCmAmCmCmGmAmGmUmCmGmGmUmGmCmU*mU*mU*mUmUmUmU
B4: GA397 (nucleic acid)
guide: mU*mC*mA*rGrCrUrCrCrArGrGrCrGrGrUrCrCrUrGrGmGrUrUrUrUrArGmAmGmCmUmArGmAmAmAmUmAmGmCmAmArGrUrUmArAmArAmUrAmAmGmGmCmUmArGrUmCmCrGrUrU*rAmUmCrArAmCmUmUrGmAmAmAmAmAmGmUmGrGmCmAmCmCmGmAmGmUmCmGmGmUmGmCmU*mU*mU*mUmUmUmU
B5: GA244: PCSK9 gRNA; protospacer TTCCGAATAAACTCCAGGCC (SEQ ID NO: 237) (nucleic acid)
guide: UUCCGAAUAAACUCCAGGCCGUUUUAGAGCUAGAAAUAGCAAGUUAAAAUAAGGCUAGUCCGUUAUCAACUUGAAAAAGUGGCACCGAGUCGGUGCUUUU
modifications: sugars from the 5' end m3 r94 m3, linkages s3 o93 s3 (s phosphorothioate, o phosphodiester), T or U not given here
B6: GA243: PCSK9 gRNA; protospacer GGCGAGGGCTGGGGTCGTGC (SEQ ID NO: 236) (nucleic acid)
guide: GGCGAGGGCUGGGGUCGUGCGUUUUAGAGCUAGAAAUAGCAAGUUAAAAUAAGGCUAGUCCGUUAUCAACUUGAAAAAGUGGCACCGAGUCGGUGCUUUU
modifications: sugars from the 5' end m3 r94 m3, linkages s3 o93 s3 (s phosphorothioate, o phosphodiester), T or U not given here
B7: GA398 (nucleic acid)
guide: mU*mC*mA*rGrCrUrCrCrArGrGrCrGrGrUrCrCrUrGrGmGrUrUrUrUrArGmAmGmCmUmAmGmAmAmAmUmAmGmCmAmArGrUrUmArAmArAmUrAmAmGmGmCmUmArGrUrCmCrGrUrUrAmUmCrArAmCmUmUmGmAmAmAmAmAmGmUmGmGmCmAmCmCmGmAmGmUmCmGmGmUmGmCmU*mU*mU*mUmUmUmU
B8: GA405: gRNA targeting PCSK9 with modifications to the tracr, for SpCas9 (nucleic acid)
guide: mU*mC*mA*rGrCrUrCrCrArGrGrCrGrGrUrCrCrUrGrGmGrUrUrUrUrArGmAmGmCmUmAmGmAmAmAmUmAmGmCmAmArGrUrUmArAmArAmUrAmAmGmGmCmUmArGrUrCmCrGrUrUrAmUmCrArAmCmUmUmGmAmAmAmAmAmGmUmGmGmCmAmCmCmGmAmGmUmCmGmGmUmGmCmU*mU*mU*mUmUrUmU
B9: GA395 (nucleic acid)
guide: mU*mC*mA*rGrCrUrCrCrArGrGrCrGrGrUrCrCrUrGrGmGrUrUrUrUrArGmAmGmCmUmArGmAmAmAmUmAmGmCmAmArGrUrUmArAmArAmUrAmAmGmGmCmUmArGrUmCmCrGrUrUrAmUmCrArAmCmUmUrGmAmAmAmAmAmGmUmGrGmCmAmCmCmGmAmGmUmCmGmGmUmGmCmU*mU*mU*mUmUmUmU
B10: GA238: PCSK9 gRNA; protospacer GCACGACCCCAGCCCTCGCC (SEQ ID NO: 231) (nucleic acid)
guide: GCACGACCCCAGCCCUCGCCGUUUUAGAGCUAGAAAUAGCAAGUUAAAAUAAGGCUAGUCCGUUAUCAACUUGAAAAAGUGGCACCGAGUCGGUGCUUUU
modifications: sugars from the 5' end m3 r94 m3, linkages s3 o93 s3 (s phosphorothioate, o phosphodiester), T or U not given here
B11: GA235: PCSK9 gRNA; protospacer CACCGCTGCCGGCAACTTCC (SEQ ID NO: 228) (nucleic acid)
guide: CACCGCUGCCGGCAACUUCCGUUUUAGAGCUAGAAAUAGCAAGUUAAAAUAAGGCUAGUCCGUUAUCAACUUGAAAAAGUGGCACCGAGUCGGUGCUUUU
modifications: sugars from the 5' end m3 r94 m3, linkages s3 o93 s3 (s phosphorothioate, o phosphodiester), T or U not given here

Tested on: PCSK9 gene
Assay: PCSK9 gRNA/SpCas9 editing in primary cynomolgus hepatocytes (Tables 2, 22)
Type: cell-based, cynomolgus monkey
Details: for Cyno Primary Hepatocyte Editing % 100: 100 ng/RNA/mL; for Cyno Primary Hepatocyte Editing % 100 / Cyno Primary Hepatocyte Editing % 500 / Cyno Primary Hepatocyte Editing % 2500: SpCas9 mRNA MS002 1:1 by weight; for Cyno Primary Hepatocyte Editing % 500: 500 ng/RNA/mL; for Cyno Primary Hepatocyte Editing % 2500: 2500 ng/RNA/mL
Method: In set of experiments, PCSK9 gRNAs were co-transfected with an equivalent amount (1:1 ratio by weight) of in vitro transcribed commercially available SpCas9 mRNA MS002 purchased from TriLink Biotechnologies into primary human hepatocytes at 2500, 500, or 100 ng/RNA/mL and processed as described in detailed methods. Extracted genomic DNA was analyzed for gene editing at the target site with next-generation sequencing of PCR amplicons generated around the target sites. Samples were prepared using the Nextera XT DNA library preparation kit (Illumina) according to the manufacturer's protocol. Briefly, two rounds of PCR were performed first to amplify the region of interest and second to add DNA sequences required for next generation sequencing and sample identification to the initial product. The final amplicon was sequenced on the Illumina MiSeq instrument according to the manufacturer's protocol. A wide range of editing activities (Table 2) were observed. In a second set of experiments, ANGPTL3 gRNAs were co-transfected with an equivalent amount of in vitro transcribed SpCas9 mRNA (1:1 ratio by weight) into primary human hepatocytes and processed and analyzed similarly (Table 3).
[…] Genomic DNA was processed, sequenced, and analyzed as described in the detailed methods section. GA266 was transfected independently twice to serve as two positive controls.
Plating, culturing, and transfection of primary hepatocytes. Primary human liver hepatocytes (PHH) and primary cynomolgus liver hepatocytes (PCH) from BioIVT were cultured per the manufacturer's protocol. Briefly, primary human hepatocytes and primary cyno hepatocytes were obtained as frozen aliquots from BioIVT. Four lots of primary human hepatocytes, each derived from a de-identified individual donor, were used for the experiments: STL (main donor) was used for all experiments, including screening experiments and off-target experiments; HLY, JLP, and TLY were used for off-target experiments. The HFG lot of primary cyno hepatocytes were used for experiments. Following the manufacturer's instructions, cells were thawed and rinsed prior to plating in 24-well plates that had been coated with bovine collagen overnight, with a density of approximate 350,000 cells/well in INVITROGRO hepatocyte medium supplemented with TORPEDO antibiotic mix (BioIVT). The cells were thawed and resuspended in hepatocyte thawing medium followed by centrifugation at 100 g for 10 min at 4° C. The supernatant was discarded, and the pelleted cells resuspended in hepatocyte plating medium. Each vial contains approximately 5 million cells that were used for plating one 24-well plate. Plated cells were allowed to settle and adhere for 4-6 h in a tissue culture incubator at 37° C. under 5% CO2 atmosphere. After incubation, cells were checked for monolayer formation. The incubating media were then replaced with fresh hepatocyte maintenance media (complete INVITROGRO medium obtained from BioIVT, the cell line provider). The cells thus became ready for transfection. Each of the gRNAs were co-transfected with an equivalent amount of in vitro transcribed ABE8.8 mRNA (1:1 ratio by molecular weight) into primary human hepatocytes via MessengerMax reagent (Lipofectamine), using various dilutions to assess for editing activity at different concentrations of test article. MessengerMAX from Thermo Fisher is used for transfection. Solution A: desired amount of guide RNA is mixed with 1:1 wt ratio of mRNA in OptiMEM. Solution B: MessengerMAX in OptiMEM. After mixing solutions A and B, the mixture was incubated at room temperature for 20 min. 60 μL of the incubated solution was added dropwise to each cell wells. For protospacer sequences that were a perfect match to the corresponding cynomolgous monkey PCSK9 or ANGPTL3 gene sequence, each gRNA was also co-transfected with an equivalent amount of ABE8.8 mRNA (1:1 ratio by molecular weight) into primary cynomolgous hepatocytes, and followed the same transfection protocol. […]

[1] = SpCas9 mRNA MS002, 625 ng/test article/mL, rep1
[2] = SpCas9 mRNA MS002, 625 ng/test article/mL, rep2
[3] = SpCas9 mRNA MS002, 1250 ng/test article/mL, rep1
[4] = SpCas9 mRNA MS002, 1250 ng/test article/mL, rep2
[5] = SpCas9 mRNA MS002, 2500 ng/test article/mL, rep1
[6] = SpCas9 mRNA MS002, 2500 ng/test article/mL, rep2

Molecule	Cyno Primary Hepatocyte Editing % 100	Cyno Primary Hepatocyte Editing % 500	Cyno Primary Hepatocyte Editing % 2500	Cynomolgus Primary Hepatocytes-% Editing [1]	Cynomolgus Primary Hepatocytes-% Editing [2]	Cynomolgus Primary Hepatocytes-% Editing [3]	Cynomolgus Primary Hepatocytes-% Editing [4]	Cynomolgus Primary Hepatocytes-% Editing [5]	Cynomolgus Primary Hepatocytes-% Editing [6]	editing efficiency compared to positive control GA266 (SpCas9 mRNA MS002, 2500, 1250, 625 ng/test article/mL)
B1	1.79%	7.13%	31.71%	–	–	–	–	–	–	–
B2	–	–	–	37.75%	41.8%	55.55%	53.02%	58.97%	62.75%	–
B3	–	–	–	44.44%	41.53%	56.02%	52.02%	53.98%	56.84%	–
B4	–	–	–	40.72%	46.28%	56.47%	58.68%	56.65%	58.59%	–
B5	1.63%	7.89%	28.16%	–	–	–	–	–	–	–
B6	0.51%	1.84%	10.18%	–	–	–	–	–	–	–
B7	–	–	–	39.09%	44%	56.45%	55.21%	59.85%	63.97%	–
B8	–	–	–	26.2%	26.36%	35.84%	35.88%	41.85%	47.33%	slightly lower editing efficiency
B9	–	–	–	33.87%	34.57%	41.48%	44.35%	43.91%	49.53%	–
B10	0.94%	4.01%	17.92%	–	–	–	–	–	–	–
B11	2.51%	17.51%	50.03%	–	–	–	–	–	–	–
